Source: PMC11548876

Legend:
[1] = biological target: CcBurs-α (Cacopsylla chinensis); assay: non-reduced versus reduced SDS-PAGE with western blot; His-tagged subunits expressed separately or co-expressed in HEK293T, collected from the medium and purified on Ni-NTA; 12% SDS-PAGE (non-reduced) and 15% SDS-PAGE (reduced), anti-His blot
[2] = biological target: CcBurs-β (Cacopsylla chinensis); assay: as above

Row | Substance | stoichiometry N [1] | stoichiometry N [2]
1 | CcBurs-α (natural protein) | 2 | –
2 | CcBurs-β (natural protein) | – | 2
